Test: yeast display, Sf9 membrane polyspecificity reagent, FACS + sequencing; frameworks hold sequencing errors
Summary of the method: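 Genes from sorted yeast were amplified by colony PCR, read by MiSeq 2 × 250 sequencing and filtered on CDR length. These cells carried a synthetic nanobody library in Saccharomyces cerevisiae BJ5465 and were sorted by FACS into low and high (top ~1%) gates on anti-HA and streptavidin fluorescence. Polyreactivity is labelled according to the gate of origin.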

| Sequence | polyreactivity (PSR sort gate) |
| --- | --- |
| QVQLEESGGGLVQAGGSLRLSCAASGLIFGKYAMGWYRTAPGKERELVAAITSSGGGTYYADSVKGRFTISRDNAKNTVYLQMNSLKPEDTAVYYCSTGPDPKYDYWGQGTQVTVSS | high polyreactivity |
| QVQLVESGGGLVQAGGSLRLSCAASGYTFGEYAMGWYRQAPGKERELVATISLSDGSTNYADSVKGRFTISRDNAKNTVYLQMNSLKPEDTAVYYCATTVWYKKAPYPDGDYWGQGTQVTVSS | low polyreactivity |
| QVQLVESGGGLVQAGGSLRLSCAASGSTFYDNAMGWYRQAPGKERELVARIRWSGVRTYYADSVKGRFTISRDNAKNTVYLQMISLKPEDTAVYYCAAGRPRPHWWSLDYYYWGQGTQVTVSS | low polyreactivity |
| QVQLEESGGGLVQAGGSLRLSCAASGRTYRYAMGWYRQSPGKERELVAAIRWSGGSTYYADSVKGRFTISRDNAKNTVYLQMNSLKPEDTAVYYCAADSYATRYYYWGQGTQVTVSS | high polyreactivity |
| QVQLVESGGGLVQAGGSLRLSCAASGLTFVYYTRGWYRQAPGKERELVATITFTGGNTYYADSVKGRFTISRDNAKNTVYLQMNCLKPEDTAVYYCAKDSGPYKAEYDYGGQGTQVTVSS | low polyreactivity |
| QVQLVESGGGLVQAGGSLRLSCAASGRIFRENAMGWYRQAPGKERELVAAISSGGSTYYADSVKGRFTISRDNAKNTVYLQMNSLKPEDTAVYYCAADLSWSRVVFGDYDYWGQGTQVTVSS | low polyreactivity |
| QVQLVESGGGLVQAGGSLRLSCAASGSIFISYAMGWYRQAPGKERELVAAISRSAGRTYYADSVKGRFTISRDNAKNTVYLQMNSLQPEDTAVYYCAASGYKNGVYTYGYWGQGTQVTVSS | high polyreactivity |
| QDKLVESGGGLVQEGGRLRLSCAASGRIFGNYAMGWYRQAPGKERELVAAIDLSGDSTYYADSVKGRFTISRDNAKYTVYLQMKSLKPEDTAVYYCAATDWFSEYYWGQGTQETVSS | low polyreactivity |
| QVQLQESGRRPGAAGGSPRMSCAASGNIFCVAVMGRYRQAPGKERELVASIGFGCTTYYADSVKCRFTISRDNAKNTVYLQMFSLKPEDTAVYYCAAPHYDWGELDYWGQGTQVPVSS | low polyreactivity |
| QVQLVESGGGLVHAGGSLRLSCAASGSTLGSYAMGWYRQAPGKERELVARITTGGGTSYADSVKGRFTISRDNAKNTVYLQMNSLKPEDTAVYYCAATFIYGARTYGYWGQGTQVTVSS | high polyreactivity |
| HVQLVESGGGLVQAGGSLPLSCAASGLTFYYNAMGWYRQAPGNERELVAAISFSGGRTYYADSVKGRFTISRDNAKNTVYLQMNSLKPEDTAVYYCNTVGKQHLDYDYWGQGTQVTVSS | high polyreactivity |
| QVQRVESGGGLVQAGGSLRLSCAASGFIFKDNAMGWYRQARGKERELVAVISGTGGRTNSADSVKGRFTISRDNAKNTVYLQMNSLKPEDTAVYYCAAEGYYTSTYDLYDYYYWGQGTQVTVSS | low polyreactivity |
| QVQVLESGGGLFQAGGRLRLSCAASGRTFRSYAMGWYRQAPGKERELVAAIRRGGSTNYADSVKGRFTISRDNAKNTVYLQMNSEKPEDTAVYYCAARGWSYRSVGYMDYWGQGTQVTVSS | high polyreactivity |
| QVQLQESGGGLVQAGGRLRLSCAASGYISTFSSEMGWYRQAPGKERELVASIAPGCTTSYADSVKGRFTISRDYAKNTEFLQMNSLKPEDTAVYYCAVDYTVPASFGYWGQGSQVTVSS | high polyreactivity |
| QVQLVESGGGLVQAGGSLRLSCAASGRTFRYYAMGWYRQAPGKERELVAAISSSGDRTYYADSVKGRFTISRDNAKKTVYLQMNSLKPEDTAVYYCAADRGARGDYWGQGTQVTVSS | high polyreactivity |
| QVQLVESGGGLVQAGGSLRLSCAASGFTFGHYAMGWDRQAPGKERELVAAISSGDRTYYADSVKGRFTISRDNAKNTVYLQMNSLKPEDTAVYSCNAVYYSWAQSARFDYWGQGTQVTVSS | low polyreactivity |
| QVQLVESGRGLVQAGGSLRLSCAASGFIFDYNTMGWYRQAPGKERELVAGITSGGSTYYADSVKGRFTISRDNEKNTFYLQMNSLKPDDTAVYYCATDDDEYYGYDYWGQGTQVTVST | low polyreactivity |
| QVQLVESGGGLVQAGGSLRLSCAASGRTFRHNAMGWYRQAPGKERELVATINRGGNTYYADSVKGRFTISRDNAKNTVYLQMNSLKPEDTAVYYCAARRSFLFDEGNYWGQGTQVTVSS | low polyreactivity |
| QVQLVESGGGLVQAGGSLRLSCAASGFIIARNAMGWYRQAPGKERELVAAISASGGRTYYADSVKGRFTISRDNAKNTVYLQMNSLKPEDTAVYYCAARRDGRSGSYNYWGQGTQVTVSS | high polyreactivity |
| QVQLVESGGRLVQAGGSIRLSCAASGRIFTDNAMGWYRQAPGKERELVAAISWDGSSTSYADSVKGRFTISRDNAKNTVYLQMNSLQPEDTAVYYCAASGVGTNHYGYWNESDYWGQGTQVTVSS | low polyreactivity |
| QVQLVESGGGLVQAGGSLRLSCAASGITFPYYAMGWYRQAPGKERELVAAISLSGGTTYYADSVKGRFTISRDNAKNTVYLQMNSLKPDDTAVYYCAARSSKFVTSNRYDYWGQGTQVTVSS | high polyreactivity |
| QVQLVESGVGLVQAGGSLRLSCAASGVTFYQYAMGWYRQAPGKERELVAAITRRGGSTSYADSVKGRFTISRDNAKNHVFLKMTRLIPEDTSVYYCNALYGSAFATQVESDYWGQGTQVNVSS | high polyreactivity |

| Sequence | polyreactivity (PSR sort gate) |
| --- | --- |
| QVQLVESGAGVGQAGGSLRLSCAASGSIFTPYAMGWYRPAPGKERELVAGITSGGNTNYADSVKGRFTISRDNAKNTVYLQMNSLKPEDTAVYYCAARYIYYYAYGYNYWGQGTKVTVSS | high polyreactivity |
| QVQLVESGGGLVQAGGSLRLSCAASGSTFVFNAMGWYRQAPGKERELVARITTGGSTHYADSVKGRFTISRDNAKNTVYLQMNSLKPEDTAVYYCNTGPYTFDSPEYYYWGQGTQVTVSS | low polyreactivity |
| QVQLVESGGGLVQAGGSLRLSCAASGGTFSPYDMGWYRQAPGKERELVASITGSGGSTYYADSVKGRFTISRGNAKNTVYLQMNSLKPEETAVYYCAAQGYWTYWPYLLRLYDYWGQGTQVTVSS | low polyreactivity |
| QVQLVESGGGLVQAGGILRLSCAASGSTFDPNVMGWYRQAPGKERELVAAITWSGGSTSYADSVKGRFTISRDNAKNTVYLQMNSLKPEDTAVYYCAADWHSWRWGYYYWGQGTQVTVSS | low polyreactivity |
| QVQLVESGGGLVQAGGSLRLSCAACGSTFIPNGMGLYRQAPGKERELVAAITQDGGSTYYADSVKGRFTISRDNAKNTVYLQMNSLKPEDTAVYYCAASAGPYYEYGYWGQGTQVTVSS | low polyreactivity |
| QDQLVESGGGLVQAGGSLRLSCAASGSIFNVNTMGWYRQAPGKERGLVAAISYSGGSTYYADSVKGRFTISRDNAKNTVYLQMNSLKPEETAVYYCNVSPTTSGDGGGYDSWGQGTQVTVSS | low polyreactivity |
| QVQLVESGGGLVQAGGSLRLSCAASGFTFVPYAMGWYRQAPGKERETNADSVKGRFTISRDNAKNTVYLQMNSLKPEDTAVYYCAAGGYGPYDYWGQGTQVTVSS | low polyreactivity |
| QVQVVESGGGLVQAVGSLRLSCAASGRIFRGNAMGWDRQAPRKERELVAAISRRSGSTYYADSVKGRFTISRDNAKNTVYLQMNSLIPEDTAVYYCAATSSLGDFSYDSWGQGTQVTESS | high polyreactivity |
| QVQLVESGGGLVQAGGSLRLSCDASGSIFRLYAMGWYRQAPGKERELVARITRRCGDTYADSVKGRFTISRDNAKNTVYLQMNSLKREDTAVYYCAADGYHRYPGSSGYGYWGQGTQVTVSS | high polyreactivity |
| QVQLQESGGLVQAGGSLRLSCAASGSISGRNVMGWYRQAPGKEREFVASITDGSSTNDADSVIGRFTISRDNAKNTVYLQMNSLKPKDTAVYYCAAYAHRAKSFGYWGRGTQVTVSS | low polyreactivity |
| QVQLVESGGGLVQAGGSLRLSCAAYGLTFRVYTMGWYRQAPGKERELVAAISTDGGSTYYADSVKGRFTISRDNAKNTVYFQMNSLKPEDTAVYYCAAKWYSYRWTQFDYWGQGTQVSVSS | high polyreactivity |
| QVQLVESGGGLVPAGGSLRLSCAASGFTFNSNAMGWYRQAPGKERELVAAISGSGGRTYYADSVKGRFTISRDNAKNTVYLQRNSLKPEDTAVYYCAADYPVRSYDYWGQGTQVTVSS | low polyreactivity |
| QVQLVESGGGLVQAGGSLRLSCAASGSNFVKYVMGWYRQAPGKERELDAAITWRGGRTYYADSVKGRFTISRDNEKNTVYLQMNSLKPEDTAVYYCAAYDQSLYGRRYDYWGQGTQVTVSS | high polyreactivity |
| QVQLVESGGGLVQAGGSLRLSCAASGRIFGYYAMGWYRQAPGKERELVAGINSAGSTNYADSVKGRFTISRDNAKNTVYLQMNSLKPEDTAVYYCAARIRLSLRTGYDYWGQGTQVTVSS | high polyreactivity |
| QVQLVESGGGLVQAGGSLRLSCAASGSIFGVYTMGWYRQAPGKERELVAAITSAGSTYADSVKGRFTISRDNAKNTVYLQMNSLKPEDTEVFYCNAQSVLLSLRVELREPHEYWGQGTQVTVSS | low polyreactivity |
| QVQLVESGGGLVQAGGSLRLSCAASGLILPYYAMGWYSQARGKERELVAAISRTGGRTSYADSVKVRFTISRDNAKNTVYLLINSLKPEDTAVYYCAAVGQSGGRRYDYWGQGTQVTVSS | high polyreactivity |
| QVQLVESWGGLVQAGGSLRLSCAASGFTFTGYAMGWYRQAPGKERELVAAISQSGGSTYADSVKGRFTISRDNAKNTVYLQMNSLKPEDTAVYYCAAVWFLLTEYDYWGQGTQVTVSS | low polyreactivity |
| QVQLVESGGGLVQAGGSLRLSCAASGSTSSPNAMGWNTQAPGKEREFVAAISRSGGSTYYADSVKGRFTISRDNAKNTVYLQMNSLKPEDSAVYYCAATVTVFYTRYYYWGQGTHVTVSS | high polyreactivity |
| QFQLVESGGGLVQAGGSLRLSCAASGSISDIYAMGWYRQAPGKERELVASISSGGITNYADSVKGRFTISRDNAKNTVYLQMNSLKPEDTAVYYCAKDRYHISFFYQMEYWGQGTQVTVSS | low polyreactivity |
| QVQLVESGGGLVQAGGSLRLSCAASGIIFLYYAMGWYRQAPGKERELVAAISSGGSTYYADSVKGRFTISRDNAKNTFYLQLNSLKPEDTAVYYCAVGRVGRFYYWGQGTQVSVSS | high polyreactivity |
| QVQLQECGGGLVQAGGRLRLSCAASGNIFDADIMGWYRQAPGKERELVASVTDGGSTNYADSVKGRFTISRDNAKNTVYLQMISLTPEDTAVYYCAAIVYPDILTYFDYDYDYFYWGQGTQVTVGS | low polyreactivity |

— the nanobody polyreactivity screen of Harvey et al. (2022)
